In paper PMC4866751, “Bacillus licheniformis Contains Two More PerR-Like Proteins in Addition to PerR, Fur, and Zur Orthologues” (PLoS ONE, 2016):
One block for each molecule: values may come before it.

Key:
[1] = target: PerRBL (BL00075) (Bacillus licheniformis ATCC14580); assay: SEC; Superdex 200 HiLoad 16/60 gel filtration, Chelex-100-treated buffer A (20 mM Tris-HCl, pH 8.0, 0.1 M NaCl, 5% glycerol); oligomeric state judged by elution profile in the last purification step
[2] = target: FurBL (BL05249) (Bacillus licheniformis ATCC14580); assay: as above
[3] = target: ZurBL (BL03703) (Bacillus licheniformis ATCC14580); assay: as above
[4] = test system: PerR2 (BL00690) (Bacillus licheniformis ATCC 14580); assay: EMSA; details: EMSA: 20 mM Tris-HCl pH 8.0, 50 mM KCl, 5% glycerol, 50 ug/ml BSA, 100 uM MnCl2; 6% PAGE in 45 mM Tris-borate with 100 uM MnCl2; temperature not stated
[5] = target: the molecule itself; assay: SEC; Superdex 200 HiLoad 16/60 gel filtration, Chelex-100-treated buffer A (20 mM Tris-HCl, pH 8.0, 0.1 M NaCl, 5% glycerol); oligomeric state judged by elution profile in the last purification step

stoichiometry N [1]: 2
Molecule: PerRBL (BL00075) (natural protein)

stoichiometry N [2]: 2
Molecule: FurBL (BL05249) (natural protein)

stoichiometry N [3]: 2
Molecule: ZurBL (BL03703) (natural protein)

Second part, the molecule before the results:

Molecule: mrgA promoter fragment with PerR box (273 bp)
Kd [4]: 70 nM

B1: PerR2 (BL00690) (natural protein, Bacillus licheniformis ATCC14580, UniProt Q62UQ7 1-154, looked up)
chain: MENETNVKQEAMAQLKRKGIRMTPQRLAIYHYFLANRNHPTIAEIQQSLREIYPAVSTATIYNTIRYFKQEGLIKEMGFTDPLRFDLALEEHDHVICEVCGKIVDFHCPQLEKVKDIAARLTGFKVTHHRLELYGICNDCQAKRKYAAKEKGVR
notes: PerR-like protein BL00690 of Bacillus licheniformis ATCC14580; ORF cloned into the NcoI and BamHI sites of pET-16b (pJL202); Contains structural Zn2+ (~0.8 per monomer); source: E. coli BL21 (DE3) pLysS, purified (heparin-Sepharose, SP-Sepharose, Superdex 200)
stoichiometry N [5]: 2
